{
  "source": "paper PMC4072346",
  "substrate": "O=[N+]([O-])c1ccc(OP(=O)(O)O)cc1",
  "experiment": "purified protein",
  "assay_type": "biochemical, Homo sapiens",
  "conditions": "pH 7.5",
  "data": [
    {"protein": "PHLPP1 (Homo sapiens) (protein) PRLVLDHKTLELLNNIRCFKIDQPSTGDASGAPAVWSHGYTEASGVKNKLCVAALSVNNFCDNREALYGVFDGDRNVEVPYLLQCTMSDILAEELQKTKNEEEYMVNTFIVMQRKLGTAGQKLGGAAVLCHIKHDPVDPGGSFTLTSANVGKCQTVLCRNGKPLPLSRSYIMSCEEELKRIKQHKAIITEDGKVNGVTESTRILGYTFLHPSVVPRPHVQSVLLTPQDEFFILGSKGLWDSLSVEEAVEAVRNVPDALAAAKKLCTLAQSYGCHDSISAVVVQLSVTEDSFCCCELSAGGAVPPPSPGIFPPSVNMVIKDRPSDGLGVPSSSSGMASEISSELSTSEMSSEVGSTASDEPPPGA", "values": [
      {"measurement": "Km", "value": "(2.1 ± 0.2) × 10^–3 M"},
      {"measurement": "kcat", "value": "0.0018 ± 0.0003", "unit": "s⁻¹"},
      {"measurement": "kcat/Km", "value": "0.9 ± 0.2", "unit": "M⁻¹ s⁻¹"}
    ]},
    {"protein": "PHLPP2 (Homo sapiens) (protein) SHGLAEMAGQRNKLCVSALAMDSFAEGVGAVYGMFDGDRNEELPRLLQCTMADVLLEEVQQSTNDTVFMANTFLVSHRKLGMAGQKLGSSALLCYIRPDTADPASSFSLTVANVGTCQAVLCRGGKPVPLSKVFSLEQDPEEAQRVKDQKAIITEDNKVNGVTCCTRMLGCTYLYPWILPKPHISSTPLTIQDELLILGNKALWEHLSYTEAVNAVRHVQDPLAAAKKLCTLAQSYGCQDNVGAMVVYL", "values": [
      {"measurement": "Km", "value": "(1.3 ± 0.2) × 10^–3 M"},
      {"measurement": "kcat", "value": "0.37 ± 0.08", "unit": "s⁻¹"},
      {"measurement": "kcat/Km", "value": "285 ± 9", "unit": "M⁻¹ s⁻¹"}
    ]}
  ]
}
